Data set [1] concerns the molecule itself. The data set is described as follows: 1H NMR NOESY and CD spectroscopy, self-association. The source says: This is because NOEs only arise between nuclei separated by less than 5 Å [K. Wüthrich, NMR of proteins and nucleic acids, John Wiley & Sons, Inc., 1986] and the distances between Phe35 and Nle16, and between N15 and Lys19, are too long to give rise to NOEs within the monomer and too long to give rise to NOEs in a parallel dimer. […] The inventor concludes that KA-I forms an antiparallel dimer of helix-loop-helix hairpin motifs, and that residues in a and d positions are positioned in the hydrophobic core, whereas all other residues are solvent exposed.
CD spectra were recorded on a Jasco J-715 CD spectropolarimeter, in 0.1, 0.5, or 1 mm cuvettes in the interval from 280-190 nm at room temperature. Each spectrum is an average of six scans and the background was subtracted from the spectrum before the mean residue ellipticity at 222 nm was measured. A 1 mM stock peptide solution was prepared by dissolving the peptide in buffer, under the assumption that the lyophilized peptide contains 25% water. The pH was adjusted by addition of small amounts of 0.1 M-1 M NaOH or HCl. For the concentration dependent studies the stock peptide solution was diluted to the desired concentrations by pipetting. […] The concentration of the stock solution for the concentration dependent measurement was determined by quantitative amino acid analysis. […]

Data set [2] concerns the molecule itself. The data set is described as follows: 1H NMR NOESY, self-association. The protocol: The secondary and tertiary structures of LA-42h were investigated by ¹H-NMR spectroscopy. The ¹H-NMR spectrum of LA-42h was assigned from the TOCSY and NOESY spectra recorded in H₂O:D₂O (90:10 v/v) containing 4 vol % of TFE-d₃ at 308 K using methods described in detail previously [S. Olofsson, L. Baltzer, Folding & Design 1996, 347-356]. Most of the spin systems of the amino acids were identified from the αH—NH region in the TOCSY spectrum and the sequential assignments of residues 5 to 19 and 23 to 41were obtained from the NH—NH region in the NOESY spectrum. Due to the cis-trans equilibrium of Pro21, an extra set of resonances with low intensity from the amino acids near the proline in the loop region was identified. The aH chemical shifts are diagnostic of secondary structure formation, and the measured values were compared to tabulated values for random coil conformations [D. S. Wishart, B. D. Sykes, F. M. Richards, J. Mol. Biol. 1991, 222, 311-333]. From their upfield shifts relative to the random coil values, two helical segments were identified in the sequence of LA-42h from […] Nle16 and from Ala25 to Arg40. A loop region was also assigned from the downfield shifts, or absence of deviation relative to random coil conformation, of the α protons. […]

Non-standard residues stand in square brackets, D forms with d. Nle = CCCC[C@H](N)C(=O)O; Orn = NCCC[C@H](N)C(=O)O

As for Ac-NAAD[Nle]EAAIKALAEK[Nle]AAKGPVDAAQ[Nle]AEQLAK[Orn]FEAFARAG-NH2 (also: two monomers associate antiparallel into four-helix bundle (dimer)) [KA-I], the binding result in data set [1] is recorded as “binds”.

B1: LA-42h (peptide)
chain: Ac-NAAD[Nle]EAKIRHLAEK[Nle]AARGPVDAAQ[Nle]AEQLAKKFEAFARAG-NH2
modifications: also: two monomers associate antiparallel into four-helix bundle (dimer)
notes: two monomers associate antiparallel into a four-helix bundle
Regarding B1, the binding result in data set [2] is reported as “binds”.

The values above are taken from patent publication US20060234291A1 (MODPRO, published 2006).
